# Reference: the supplement of paper PMC12764529
# ± gives the half width of the 95% confidence interval.
# Assays:
# [1] = folding stability dG unfold (combined trypsin and chymotrypsin); higher = more stable
# Summary of the method: (§1)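 Designed mini-proteins (under 80 residues, no cysteine) in a PA-tagged cDNA display construct were digested with trypsin and chymotrypsin. Each protease was used at 11 concentrations (threefold dilutions) plus a no-protease condition, followed by sequencing. K50 was inferred by Bayesian fitting of sequencing counts, and unfolding free energy was derived against a sequence-predicted unfolded-state K50 and a shared folded-state K50, per protease or combined. Only designs with AlphaFold2 dimer inter-PAE above 15 were kept.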
# [2] = folding stability dG unfold from trypsin proteolysis; higher = more stable
# Summary of the method: as §1
# [3] = folding stability dG unfold from chymotrypsin proteolysis; higher = more stable
# Summary of the method: as §1
Sequence,folding stability dG unfold [1] [kJ/mol],folding stability dG unfold [2] [kJ/mol],folding stability dG unfold [3] [kJ/mol]
MEELEKLPGIKVEPIREEDGRLYLRVTFTDEVAKALGKPPVTVLIEVEPGEELELSPELRELLRKLGIEVVS [r1_256_TrROS_Hall],16.1 ± 0.502,10.9 ± 0.255,18.2 ± 0.46
MEIIKKLKIPDYEIVSVKTKKIGNKVIVVVVLKKEKEYYVIVAEINPETKEIKIISIKKLKENETLEDFISS [r1_383_TrMRF],15.7 ± 1.34,13.4 ± 1.09,16.5 ± 0.46
MEIKKIELKVEEKDGKLVLTVKIEVFDKNGKLVKKVEIKLEVPKELKEGQSLEELPLSEELRKLVKELLEKS [r1_354_TrROS_Hall],14.8 ± 2.93,13 ± 1.09,15.9 ± 1.42
MEKVLILAKIKLKGPDGEEAEIDFAVEISPEEATPELLKKVREEAEEIAEALKEKGYEVELEVEVVKLGEES [r1_221_TrMRF],13.6 ± 2.72,15.2 ± 2.01,12.1 ± 1
MEPPPVVVLEIEIEVPAEDEELRNMTAEELAARLAEELEALPGLKVVSVEVVEVEERPDGTLRVRIRVTIES [r1_484_TrROS_Hall],15 ± 3.31,15.5 ± 1.97,9.69 ± 0.586
MKETVTVDITVVVEDENGKKHLVRVKVTVEKLPDGTYRVTIEVENLETGKTETIEIEVKGAEFKPGDVIEIS [r1_14_TrROS_Hall],12 ± 0.502,13.4 ± 0.628,10.7 ± 0.628
MKIKEVKVFPLPGENTIVILVTGEFDSFYIPETGKPIPSSAKITLIEVIKVPEDSDEAEVESSLLILPDAES [r1_147_TrMRF],5.88 ± 0.669,4.51 ± 0.28,6.12 ± 0.28
MKPGETKTLTLTIVDEETGETYTVKVTVTYDEDTGVVTIKAEITYPDGRKFTVTARFNRETGELTEISIEPS [r1_144_TrROS_Hall],18.1 ± 0.41,16.5 ± 0.364,18.6 ± 0.314
MMTKEEIEKLAEELAKELEKKGYKIVKVEIEEVKPGEVKIKVDGKEITITLKDGRKLRIKVEVKKLPKEELS [r1_31_TrROS_Hall],12.7 ± 0.46,8.24 ± 0.222,15.2 ± 0.46
MNIPLKEILDKAKAEGKPVVFPDGTKTLSFEPGGKATIEKPVEVPGKPGVPLETKTYTIDINEDGSVTVNDS [r1_284_JUSTAS],-1.56 ± 0.397,-3.66 ± 0.711,-1.17 ± 0.628
MNLSDPVSVAKLKKALEEIKKAIEELKKKGKKIEILAIELNDDSIKITPVTKSEEYIKKKKEEGIEIILLLS [r1_134_JUSTAS],5.78 ± 0.837,6.37 ± 0.172,2.83 ± 1.55
MNVTINITVLSPDSSGYTMKATVTFPETPVTTSKEYKTSDPVSAVEEIIKELVDEENLSNATVTTYPSSRLS [r1_399_JUSTAS],0.18 ± 0.795,-2.35 ± 0.92,1.58 ± 1.46
MPDISRAEIKALAEKLGLPVPDGTITIKFTYGDKTITVPVDAKKDITLGDIVEAIKKKNPNIKKIEIVAEPS [r1_135_TrMRF],3.8 ± 0.322,4 ± 0.184,3.38 ± 0.335
MRITLEHPDIKRLTIEFRPMPDGYFRMDIKVERPDGKPVPIPFPMRYEDGKMTPEMMEQMIDEAVEEALADS [r1_124_TrROS],2.88 ± 0.879,2.54 ± 0.322,2.58 ± 0.837
MRLYLVKVEIRREEVDPETGEVREEKLELTVLVREEDEEALEKAEELARKLAEEEGIKEVKVEVVELPAEES [r1_346_TrROS_Hall],10.3 ± 1.05,9.63 ± 0.377,11 ± 0.331
MTKKTVTLPIPEPIRAAIEAGKPLPLEEIVDLVRDVVAKELGFKDVKVLSVEIKPLPNGEIVVEVTVEFPES [r1_290_TrMRF],12.1 ± 0.962,12.9 ± 1.17,11.7 ± 0.669
MTLLIPLPPAFPDLTPEQVLDLLRELFLSPDEEATAEENPETGSVTVTVRRGDEEYVFTFYPDGYLVLEPGS [r1_131_TrMRF],11.8 ± 0.167,11.9 ± 0.167,11.71 ± 0.0669
MTVTVPPDGTVTITLTDPSGNTYTFTIPVTDPAELRARLEEAIRELFPEFEDIPVRVVAVDGPAVVVEVPLS [r1_389_JUSTAS],13 ± 0.36,12.6 ± 0.502,13 ± 0.151

Sequence,folding stability dG unfold [1] [kJ/mol],folding stability dG unfold [2] [kJ/mol],folding stability dG unfold [3] [kJ/mol]
MVAVFEFTFKSEEELLEAAEEVARRLAAELGLPEEELEKIPIEVEVEEIGNEDGEKEYKLTIRFGFPEEFLS [r1_81_TrMRF],16 ± 0.544,14.7 ± 0.544,16.4 ± 0.209
MVLDAGISRKDFINNKPIKVETALKKLAEILGGPNFKPKVKPSKKDYLVAVIELPDGRKLLLKDDKDIKISS [r1_168_TrMRF],1.58 ± 0.586,2.15 ± 0.502,-0.45 ± 0.586
MVLKVTIEITVTHPANPGKTEKLTIVVEAPTLEEALAAALEEIRRRLGLPPGAKVTVKVTVELVELPEEDLS [r1_149_TrROS_Hall],25.1 ± 2.09,18.8 ± 0.753,23.6 ± 0.753
NKRIKIFIGGDDPSMAEQIQQWLQDNGYNVEVHVFTSPEDMKKAREWAEQNDIVIVIQVPPPPPKDPGDNNS [r1_497_TrROS],13.8 ± 0.31,10.4 ± 0.502,14.59 ± 0.1
NWYIDIDEIKEAINDAPPGDEVELPFKFYDPDDGQKFKFRVTVEVNPNGKLTSVRIQHPGSGKPHAEINLKS [r1_165_TrROS],4.11 ± 0.46,2.66 ± 0.293,5.25 ± 0.544
PEKVILVEVPAGEELTEEELKELAEALGLEVEIEKVKVTVTVTVEVTLPDGKKVKVETTETRTVVLVTVKDS [r1_238_TrROS_Hall],13.2 ± 0.586,11.1 ± 0.322,14.3 ± 0.586
PFRVMVDLERDPEDGWYKVTIMVQAKDGRPITPELIENAAREIFKQGFPIKKIKLEPYPNGYVHFKIEIPLS [r1_408_TrROS],11.1 ± 0.268,9.01 ± 0.146,12 ± 0.155
PKEIIEFAKKNGFKVKIEPVKVGSEEKAKKLAEEIKKKNNGKVFIIKNPKTGEAVYRIEIYPLKVPKNKKLS [r1_179_TrMRF],7.95 ± 1.8,5.72 ± 0.586,8.77 ± 0.92
PKIEITRVEYHPNEGYYRVTVKLPGKDVSIYMGPENGMMQVYFPGNGREREFPFDSMDDAVDRAKELLKERS [r1_177_TrROS],5.16 ± 1.17,5.57 ± 0.502,6.48 ± 0.46
PLTFPALVRNPLEDRWEEVTVTLHPDGTLTVTHRGRPLASVRVVTRPPPEVELVPVRDADGVERLGLRTRGS [r1_496_TrMRF],4.03 ± 0.31,1.45 ± 0.297,5.06 ± 0.335
PNMKMEWIQIPPGDLNDPVKIEAPLPPGTQIMIWVHDNGNGEWRPIFTVNNDEITIKNLPDADHVWVWVIKS [r1_224_TrROS],10.3 ± 1.17,7.64 ± 0.544,11.3 ± 0.418
PPPDVPVETETKTSTSTLPDGSRLTTTTTTTRAPNGYYYDTTSVTTTVAPDGTVTTTSTSTTKGPLPAALLS [r1_129_JUSTAS],6.27 ± 1.13,7.56 ± 0.502,6.32 ± 0.301
PPTSPEFRKALENIKKVDIEIEPYPNDGMVRMSIELKFPDKPVEIDIHYQYDPDGKINGMWARLDGKWIPIS [r1_274_TrROS],7.73 ± 0.837,4.6 ± 0.381,8.34 ± 0.331
PWRPIMITVRANPNLKVDIYPPNGPQEEIPVDSPEDALKKAQKLLPPNYPIMVKVQNEGKPIATFPFWIPPS [r1_276_TrROS],10.9 ± 2.18,11.9 ± 1.51,10.1 ± 0.586
QRTVYIPIRGMPPDQMVDMIRMALRQAREKGHPNRTIRIWMPGPPEQRERARRYIKELADEPGLNVTIEGWS [r1_387_TrROS],7.68 ± 0.23,7.16 ± 0.121,7.75 ± 0.335
RKIEINIWRNENHWYVRIKLEHPDGKEQELMFPMDSWDEAREFIRGILANLPPNNVKIEDIEIYPPNGQPIS [r1_169_TrROS],16.2 ± 0.289,11.9 ± 0.318,18.11 ± 0.0962
SAAAAVAAAVAATLEALLPPGYRITAVTAEVAPDGTVTIPVTVEGPDGVPTLVVVTVDLATGEITVTVFGSA [r9_219_TrMRF],17.7 ± 0.92,13.3 ± 0.669,19.4 ± 0.879
SAAEIDEDGTIRIVLSEEAVKNMSEEELKALAEELAKLLPPGAKVEIKIVKPKPVKEEKKLYDKDGKEVSAG [r14_312_TrROS_Hall],3.3 ± 0.628,4.97 ± 0.347,0.406 ± 0.226
